From patent US20220195015A1 (published 2022)

B1: C073 (antibody, V domains shown)
VH: QLQLQESGPGLVKPSETLSLTCTVSGASIPSSTSYWGWIRQPPGKGLEWIGSIYYTGSTYYNPSLKSRVTISVDTSKNHFSLILSSVTAADTAVYYCARRSITLAGRDCLDFWGQGTLVTVSS
VL: DIQLTQSPSSLSASVGDRLTITCRASQSITTSLNWYQQKPGKAPKLLIYAASSLQSGVPSRFSGSGSGTDFTLAISSLQPEDFATYYCQQSYIPLLTFGGGTKVDIK
B2: C522 (antibody, V domains shown)
VH: EVQLVESGGGLIQPGGSLRLSCAASEFIVSRNYMSWVRQAPGKGLEWVSVIYSGGSTFYADSVKGRFTISRDESKNTLYLQMNSLRAEDTAIYYCARDRGGGILDYWGQGTLVTVS
VL: DIQMTQSPSSLSASVGDRVTITCQASQDINIFLNWYQQKPGKAPKLLIYDASSLETGVPSRFSGSGSGTDFTFTISSLQPEDFATYYCQQYGNLPKYTFGQGTKLEIK
B3: C044 (antibody, V domains shown)
VH: EVQLVESGGGLVQPGGSLRLSCAASGFTFSSYSMNWVRQAPGKGLEWVSYISSSSSTIYYADSVKGRFTISRDNAKNSLYLQMNSLRDEDTAVYYCAREAHDGALTDYGDYLNWFDPWGQGTLVTVSS
VL: SYELTQPPSVSVAPGKTARITCGGNNIGSKSVHWYQQKPGQAPVLVIYYDSDRPSGIPERFSGSNSGNTATLTISRVEAGDEADYYCQVWDSSSDHLYWVFGGGTKLTVL
B4: C045 (antibody, V domains shown)
VH: EVQLVESGGGLVQPGGSLRLSCAASGFTFSTYSMNWVRQAPGKGLEWVSYISSSSSTIHYADSVKGRFTISRDNAKNSLYLQMNSLRDEDTAVYYCAREAHDGALTDYGDYLNWFDPWGQGTLVTVSS
VL: SYELTQPPSVSVAPGKTARITCGGTNIGSKNVHWYQQKPGQAPVLVIYYDNDRPSGIPERFSGSNSGNTATLTISRVEAGDEADYYCQVWDTTSDHFYWVFGGGTKLTVL
B5: C097 (antibody, V domains shown)
VH: QVQLQESGPGLVKPSQTLSLTCTVSGGSISSGPYYWSWIRQHPGKGLEWIGYIYYSGSTYYNPSLKSRVTISVDTSKKQFSLNLNSVTAADTAVYYCARVWQYYDSTGSFDYWGQGTLVTVSS
VL: DIVMTQSPLSLPVTPGEPASISCRSSRGLLHSNGYNYLDWYLQKPGQSPQLLIYLGSNRASGVPDRFSGSGSVTDFTLNISRVEAEDVGVYYCMQALQTPFTFGPGTKVDIK
B6: C096 (antibody, V domains shown)
VH: EVQLVESGGGLVKPGGSLRLSCVASGFTFRNAWMNWVRQAPGKGLEWVGRIKANSDGGTIDYAEPVQGRFTISREDSRNSLYLQMNSLKTEDTAVYYCTTGPQYDDFGHSYIVDSWGPGTLVTVSS
VL: DIVMTQSPLSLPVTLGEPASISCRSSQSLLHSNGFHFLEWYLQKPGQSPQLLIYVGSNRASGVPDRFSGSGSGTDFTLKISRVEAEDVGVYYCMQTLQTPLTFGGGTKVEIK
B7: C564 (antibody, V domains shown)
VH: EVQLLESGGGLVQPGTSLRLSCAASGFTFSSYAMSWVRQAPGKGLEWVSAISSSGGSTYYADSVKGRFTISRDNSKNTLYLHMNSLRAEDTAVYYCATERIAVAGTRMYNWFDPWGQGTLVTVSS
VL: DIQMTQSPSSLSASVGDRVTLTCRASQSISSYLNWYQQKPGKAPNLLIYAASSLQSGVPSRFSGSGSGTDFTLTISSLQPEDFATYYCQQSYSAPPWTFGQGTKVEIK
B8: C095 (antibody, V domains shown)
VH: VQLVEAGGGVVQPGRSLRLSCAASGLAFSIYGMHWVRQAPGKGLEWVAIVAQDGSKKYYADSVKGRFTISRDNSKNTLYLEMNSLRTEDTAVYYCVKEGRPSDTVVVVAFDYWGQGSLVTVSS
VL: DIQLTQSPSSLSASVGDRVTITCRASQSISNYLNWYQQKPGKAPKVIIYAASSLQSGVPSRFSGSGSGTDFTLTISSLQPEDFATYYCQQSHSIPRTFGQGTKVEIK
B9: C098 (antibody, V domains shown)
VH: EVQLVESGGGLIQPGGSLRLSCAASGFTVSSNYMSWVRQAPGKGLEWVSVIYSGGSTYYADSVKGRFTISRDNSKNTLYLQMNSLRAEDTAVYYCARDLYSSGGTDIWGQGTMVTVSS
VL: not shown
B10: C099 (antibody, V domains shown)
VH: EVQLVESGGGLIQPGGSLRLSCAASGITVSSNYMSWVRQAPGKGLEWVSVMYAGGSTFYADSVKGRFTISRDDSKNTLFLQMNSLRAEDTAIYYCARDLYSSGGTDIWGQGTMVTVSS
VL: EIVLTQSPGTLSLSPGERATLSCRASQSIGSSYLAWYQQKPGLAPRLLIYGASRRATGIPDKFSGSGSGADFTLTISRLEPEDFAVYYCQQYGSSPGTFGQGTKVEIK
B11: C521 (antibody, V domains shown)
VH: EVQLVESGGGLVRPGGSLTLSCVASGFTVGSNFMSWVRQAPGKGLEWVSLIYNSGGTHYADSVKGRFTISRDRSKNTLYLQMNSLRAEDTAIYYCANHGYYYYMDVWGKGTTVTVS
VL: QSALTQPASVSGSPGQSITISCTGTGSDIGAYNYVSWHQHHPGKAPKLIIYDVSNRPSGVSNRFSGSKSGNTASLTISGLQAEDEADYYCTSYTNTTTPWVFGGGTKVTVL
B12: C043 (antibody, V domains shown)
VH: QLVQSGPEVKKPGTSVKVSCKASGFTFYNSAVQWVRQARGQRLEWVGWIVVGSGNTDYAQKFQERVTMTRDLSTNTAYMEVNSLRSEDTAVYYCAAPYCSGGTCLDGFDIWGQGTMVTVSS
VL: EIVLTQSPGTLSLSPGERGTLSCRASQSVRSNYLAWYKQRPGQAPRLLVYGASSRATGIPDRFSGSGSGTDFTLTISRLEPEDFAVYYCQQYGSSPWTFGQGTKVEIK
B13: C091 (antibody, V domains shown)
VH: QVQLVQSGAEVKKPGSSVKVSCKASGGTFSSYTISWVRQAPGQGLEWMGRIIPILGIANYAQKFQGRVTITADKSTSTAYMELSSLRSEDTAVYYCARDSGYSGYGSTYYMDVWGKGTTVTVSS
VL: QSVLTQPPSVSGAPGQRVTISCTGSSSNIGAGYDVHWYQQLPGTAPKLLIYGNSNRPSGVPDRFSGSKSGTSASLAITGLQAEDEADYYCQSYDSSLSGSVFGTVTKVTVL
B14: C092 (antibody, V domains shown)
VH: QVQLVQSGAEVKKPGSSVKVSCKASGGSFTNHFISWVRQAPGQGLEWMGRIIPILGTANYAQNFQGRVMMTADKSTSTAYMELSSLRSEDTAVYYCARDSGYSGYGSTYYMDVWGKGTTVTVSS
VL: QSVLTQPPSVSGAPGQRVTISCTGSNSNIGAGYDVHWYQQLPGAAPKLLIYGNNNRPSGVPDRFSGSKSDTSASLAITGLQVEDEADYYCQSYDSSLSDSVFGSGTKVTVL
B15: C080 (antibody, V domains shown)
VH: EVQLVQSGAEVKKPGESLNISCKASGYSFTIYWIAWVRQLPGKGLEWMGIIYPGDSDTRYSPSFQGQVTISADKSISTAYLQWRSLKASDSAVYYCARGVAVDWYFDLWGRGTLVTVSS
VL: QSVLTQPPSVSGAPGQRVTISCAGSSSNIGAGFDVYWYQQLPGTAPKLLIYGNNNRPSGVPDRFSGSKSGTSASLAITGLQAEDEADYYCQSSGSVLSDLYVFGTGTKVTVL
B16: C213 (antibody, V domains shown)
VH: EVQLVESGGGLVKPGGSLRLSCAASGFTFSSYSMNWVRQAPGKGLEWVSSISSSSSYIYYADSVKGRFTISRDNAKNSLYLQMNSLRAEDTAVYYCARVQVGARGWVDYWGQGTLVTVSS
VL: NFMLTQPHSVSESPGKTVTISCTRSSGSIASNYVQWYQQRPGSAPTTVIYEDNERPSGVPDRFSGSIDSSSNSASLTISGLKTEDEADYYCQSYDRINWVFGGGTKLTVL
B17: C217 (antibody, V domains shown)
VH: EVQLVESGGGLVKPGGSLRLSCAASGFTFSSYSMNWVRQAPGKGLEWVSFISSRSSYIYYADSVKGRFTISRDNAKNSLYLQMNSLRAEDTAVYYCARVQVGARGWVDYWGQGTLVTVSS
VL: NFMLTQPHSVSESPGKTVTISCTRSSGSIASNYVQWYQQRPGSAPTTVIYEDNQRPSGVPDRFSGSIDSSSNSASLTISGLKTEDEADYYCQSYDSINWVFGGGTKLTVL
B18: C035 (antibody, V domains shown)
VH: EVQLVESGGGLVQPGGSLRLSCAASGFIFSSYWMTWVRQAPGKGLEWVASIKYNGNERNYVDSVKGRFTISRDNARNSLFLQLNNLGAEDTAVYYCARQPESTIWYYFDYWGQGTLVTVSS
VL: SYELTQPPSVSVSPGQTARVTCSGHALPDQYTYWYQQRPGRAPVLVIYVNNQRPSGIPDRFSATTSGTTVTLTISGVQAEDEADYYCQSADSSGSYVVFGGGTKLTVL
B19: C077 (antibody, V domains shown)
VH: QVQLVQSGAEVKKPGASVKVSCKASGYTFTSYAMHWVRQAPGQRLEWMGWINTDNGNTKYSQKFQGRVTITRDTSASTAYMELSSLRSEDTAVYYCAREGALTNWFDPWGQGTLVTVSS
VL: SYELTQPPSVSVAPGQTARIPCGGNNIGSKSVHWYQQKPGQAPVLVVYDDSDRPSGIPERFSGSNSGNTATLTISRVEAGDEADYYCQVWDSSSDLHVVFGGGTKLTVL
B20: C094 (antibody, V domains shown)
VH: QVQLQESGPGLVKPSETLSLTCNVSGVSISTDYWSWIRQPPGKGLEWIGYIYYSGNTKDYNPSLKSRVTISVDTSKNQFSLMLSSVTAADTAVYYCARHYDILTSLSWFDPWGQGTLVTVSS
VL: QSVLTQPPSVSAAPGQKVTISCSITNSNLGNIYVSWYQQLPGTAPKLLIYGNNKRPSGIPDRFSGSKSGTSATLGITGLQTGDEAHYYCGTWDSSLSANWVFGGGTKLTVL
B21: C097 (antibody, V domains shown)
VH: QVQLQESGPGLVKPSQTLSLTCTVSGGSISSGPYYWSWIRQHPGKGLEWIGYIYYSGSTYYNPSLKSRVTISVDTSKKQFSLNLNSVTAADTAVYYCARVWQYYDSTGSFDYWGQGTLVTVSS
VL: DIVMTQSPLSLPVTPGEPASISCRSSRGLLHSNGYNYLDWYLQKPGQSPQLLIYLGSNRASGVPDRFSGSGSVTDFTLNISRVEAEDVGVYYCMQALQTPFTFGPGTKVDIK
B22: C095 (antibody, V domains shown)
VH: VQLVEAGGGVVQPGRSLRLSCAASGLAFSIYGMHWVRQAPGKGLEWVAIVAQDGSKKYYADSVKGRFTISRDNSKNTLYLEMNSLRTEDTAVYYCVKEGRPSDTVVVVAFDYWGQGSLVTVSS
VL: DIQLTQSPSSLSASVGDRVTITCRASQSISNYLNWYQQKPGKAPKVIIYAASSLQSGVPSRFSGSGSGTDFTLTISSLQPEDFATYYCQQSHSIPRTFGQGTKVEIK

Target: SARS-CoV-2 RBD (wild type) (SARS-CoV-2, UniProt P0DTC2 319-539)
Test: ELISA on coated RBD

Going from B1 to B2, the EC50 falls from 20.6 ng/mL to 0.93 ng/mL (22-fold).

Compared with B3, B4 is 260-fold lower in EC50: 1820 ng/mL for the first, 7 ng/mL for the second.

Compared with B5, B6 is 1.5-fold higher in EC50: 3.45 ng/mL for the first, 5.18 ng/mL for the second.

Going from B7 to B8, the EC50 falls from 14.6 ng/mL to 1.1 ng/mL (13-fold).

Going from B9 to B10, the EC50 falls from 7.7 ng/mL to 2.45 ng/mL (3.1-fold).

First: B11
Second: B12
The EC50 of the first is 1.8-fold lower: 6.9 ng/mL for the first, 12.1 ng/mL for the second.

First: B13
Second: B14
The EC50 of the first is 13-fold higher: 89.5 ng/mL for the first, 7.07 ng/mL for the second.

B15 and B16 are within 1.5-fold of each other in EC50: 1.97 ng/mL for the first, 2.02 ng/mL for the second.

Compared with B17, B18 is 6.7-fold higher in EC50: 2.28 ng/mL for the first, 15.2 ng/mL for the second.

First: B19
Second: B20
The EC50 of the first is 27-fold higher: 45.9 ng/mL for the first, 1.67 ng/mL for the second.

Target: SARS-CoV-2 spike protein on HIV-1 pseudotyped particles (SARS-CoV-2, UniProt P0DTC2 14-1254)
Test: cell-based or functional assay

B21 and B22 are within 1.5-fold of each other in “Neutralization IC50” value: 9.6 ng/mL for the first, 11.3 ng/mL for the second.

Going from B21 to B22, the “Neutralization IC90” value rises from 31.1 ng/mL to 52.6 ng/mL (1.7-fold).
